Publication PMC12709188, “Expanding the CarD interaction network: CrsL is a novel transcription regulator in actinobacteria” (Nucleic Acids Research, 2025)
“And” between values parts separate entries of the source, which are not always exact repeats. Equal entries are not always repeated.

B1: CarD–NT (in vitro purified CarD) (natural protein, M. smegmatis, UniProt A0R561 1-162, looked up)
chain: MIFKVGDTVVYPHHGAALIEAIETRTIKGEQKEYLVLKVAQGDLTVRVPADNAEYVGVRDVVGQEGLDKVFQVLRAPHTEEPTNWSRRYKANLEKLASGDVNKVAEVVRDLWRRDQERGLSAGEKRMLAKARQILVGELALAENTDDAKAETILDEVLAAAS
notes: CarD, transcription factor of M. smegmatis; dimer when alone (native gel); Uniformly 13C,15N-labelled for some NMR samples; also called [^13C,^15N]-CarD; source: E. coli (strain LK3209), purified (Ni-NTA, TEV protease cleavage; for NMR also Superdex 75)

How the values were obtained:
[1] = biological target: B1; experiment: ITC; 27.6 μM CarD in the cell titrated by 315 μM CrsL; 27°C; 50 mM Tris–HCl, 100 mM NaCl, 0.5 mM DTT, pH 7.5; one-site binding model; triplicate; settings: both partners purified
[2] = biological target: the molecule itself; experiment: native gel or EMSA; purified CrsL, CarD and DnaK mixed in 1× STB buffer (50 mM Tris–HCl pH 8.0, 5 mM Mg acetate, 100 μM DTT, 50 mM KCl, 50 μg/ml BSA), 37°C 15 min; 8% native gel at 4°C; Coomassie stain, bands confirmed by mass spectrometry

Kd [1] | dH [1] [kcal/mol] | stoichiometry N [1] | Binder | stoichiometry N [2]
4.3 nM and 4.5 nM and 3.3 nM | -21 | 1 | CrsL–His (in vitro purified CrsL) (natural protein, M. smegmatis, UniProt A0R4M8 1-54, looked up, CrsL, small protein (predicted MW 5.7 kDa) encoded by MSMEG_5890 of M. smegmatis; 15N- or 13C,15N-labelled for NMR; also called [^15N]-CrsL; [^13C,^15N]-CrsL; source: E. coli (strain LK3499), purified (Ni-NTA, Superdex 75; for NMR Superdex 30)) MPAKTDPADLGDVEPLADDTASQARRVVATYATDADECRMFLSMLGIGPSKTEV | 
 |  |  | B1 | 2
